Source: publication PMC5843810, “18th European Symposium on Radiopharmacy and Radiopharmaceuticals” (EJNMMI Radiopharmacy and Chemistry, 2016)
Blank lines part the entries; values can stand above or below the binder they belong to. Primed or numbered codes have the meaning given here. Side-chain parts run from the residue outwards. [ ]: non-standard residue; d: D form. PEG7′ = not defined here; Pra = C#CC[C@H](N)C(=O)O; Tz = not defined here

Experiments:
[1] = target: integrin αvβ3 receptor of αvβ3-positive melanoma tumors in C57BL/6 mice (UniProt P43406)
[2] = target: T1, αvβ3 integrin receptors on tumor cells, P06756; assay: real-time quantification of cell binding with Ligand Tracer; 68Ga-labelled cyclo-RGD peptides on tumor cells (AR42J and U87MG named); settings: remark: other sources report otherwise
T1 chain 1: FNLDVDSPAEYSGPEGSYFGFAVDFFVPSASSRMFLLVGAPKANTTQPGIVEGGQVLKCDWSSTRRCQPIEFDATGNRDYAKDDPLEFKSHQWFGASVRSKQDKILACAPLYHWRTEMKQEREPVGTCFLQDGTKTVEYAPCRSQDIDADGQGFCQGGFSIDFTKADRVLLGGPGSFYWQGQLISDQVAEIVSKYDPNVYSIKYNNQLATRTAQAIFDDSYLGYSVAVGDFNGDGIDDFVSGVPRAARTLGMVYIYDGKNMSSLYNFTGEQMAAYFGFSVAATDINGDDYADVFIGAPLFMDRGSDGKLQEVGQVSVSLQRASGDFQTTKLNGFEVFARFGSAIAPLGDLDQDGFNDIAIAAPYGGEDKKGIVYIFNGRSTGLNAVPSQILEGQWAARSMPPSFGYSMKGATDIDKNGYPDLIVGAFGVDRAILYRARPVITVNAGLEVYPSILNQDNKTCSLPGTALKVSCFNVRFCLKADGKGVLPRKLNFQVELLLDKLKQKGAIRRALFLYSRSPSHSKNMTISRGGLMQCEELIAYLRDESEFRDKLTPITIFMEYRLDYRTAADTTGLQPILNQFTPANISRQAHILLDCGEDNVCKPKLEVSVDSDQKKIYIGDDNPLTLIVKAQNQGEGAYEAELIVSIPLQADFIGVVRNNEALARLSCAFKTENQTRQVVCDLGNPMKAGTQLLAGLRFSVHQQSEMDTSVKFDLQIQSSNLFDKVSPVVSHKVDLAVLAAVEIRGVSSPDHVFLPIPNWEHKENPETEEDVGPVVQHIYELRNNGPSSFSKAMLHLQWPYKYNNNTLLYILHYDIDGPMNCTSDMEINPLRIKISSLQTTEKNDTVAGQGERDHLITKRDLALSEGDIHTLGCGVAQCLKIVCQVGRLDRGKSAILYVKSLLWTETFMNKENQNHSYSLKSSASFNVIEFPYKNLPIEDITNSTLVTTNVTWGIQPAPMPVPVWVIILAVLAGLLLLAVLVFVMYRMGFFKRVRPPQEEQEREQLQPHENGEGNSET
T1 chain 2: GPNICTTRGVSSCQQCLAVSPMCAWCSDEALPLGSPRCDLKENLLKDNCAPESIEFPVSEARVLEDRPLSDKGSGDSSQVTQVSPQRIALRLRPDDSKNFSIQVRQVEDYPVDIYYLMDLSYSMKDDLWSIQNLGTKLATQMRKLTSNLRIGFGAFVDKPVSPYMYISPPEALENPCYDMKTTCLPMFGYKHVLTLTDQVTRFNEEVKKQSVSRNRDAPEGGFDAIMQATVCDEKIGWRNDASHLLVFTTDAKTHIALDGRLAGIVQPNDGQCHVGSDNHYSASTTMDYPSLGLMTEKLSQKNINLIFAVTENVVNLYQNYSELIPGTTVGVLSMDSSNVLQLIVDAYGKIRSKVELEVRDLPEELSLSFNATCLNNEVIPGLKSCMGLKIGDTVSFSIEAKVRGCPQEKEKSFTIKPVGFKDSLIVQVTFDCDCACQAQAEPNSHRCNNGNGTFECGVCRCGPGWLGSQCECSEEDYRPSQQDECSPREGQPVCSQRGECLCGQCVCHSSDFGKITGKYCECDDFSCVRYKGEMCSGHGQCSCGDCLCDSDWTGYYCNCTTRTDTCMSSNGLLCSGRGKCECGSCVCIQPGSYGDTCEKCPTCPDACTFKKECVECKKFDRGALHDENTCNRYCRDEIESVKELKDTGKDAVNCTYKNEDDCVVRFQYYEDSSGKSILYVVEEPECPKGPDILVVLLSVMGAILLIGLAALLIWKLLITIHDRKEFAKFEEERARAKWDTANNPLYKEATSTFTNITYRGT

[3] = target: RGD-recognising integrins; assay: standard binding assay on cells (IC50); U-87 MG and SKOV-3 cancer models; the competing ligand is not named
[4] = target: RGD-recognising integrin receptors

Binder: cyclo(RGD[dF]K) (also: two c(RGDfK) copies on a Glu core, DOTA chelator, 68Ga label) [68Ga-DOTA-E-[c(RGDfK)2]]
retention on cells [2]: < 58%

Binder: cyclo(RGD[dF]V) [control c(RGDfV) peptide]
IC50 [3]: 600 nM

B1: FPyPEGCBT-c(RGDfK) (peptide)
peptide: cyclo(RGD[dF]K)
modifications: also: cysteine-modified, cysteine site not given here, FPyPEGCBT condensed with that cysteine, 18F in the tracer
tumour uptake 1 h after injection in mice bearing subcutaneous SKOV-3 tumours [4]: 2.4 %ID/g | tumour uptake 1 h after injection in mice bearing subcutaneous U-87 MG tumours [4]: 2.9 %ID/g | IC50 [3]: 3080 nM

Other lines, results leading:

tumor uptake in C57BL/6 mice bearing αvβ3-positive melanoma tumors, maximum at 30 min p.i. (30, 60, 180 min); reduced to 50-60% by cold cRGDfK peptide [1]: 4.11 %ID/g
Binder: cyclo(RGD[dF]K([PEG7′-Tz-Pra])) (reading uncertain; also: 99mTc(CO)3 complex) [99mTc(CO)3-Pra-Tz-PEG7-cRGDfK]

tumor uptake in C57BL/6 mice bearing αvβ3-positive melanoma tumors, maximum at 30 min p.i. (30, 60, 180 min); reduced to 50-60% by cold cRGDfK peptide [1]: 3.01 %ID/g
Binder: cyclo(RGD[dF]K) (not fully specified (residue 5); also: 99mTc(CO)3 complex) [99mTc(CO)3-Pra-Tz-CH2-cRGDfK]
